Molecular target: T1, B3GNT2 (Homo sapiens, UniProt Q9NY97)
T1 construct: The respective ORFs of candidate genes [CD274 (NM_014143), MCL1 (NM_021960), JUNB (NM_002229), and B3GNT2 (NM_006577)] were synthesized; expressed in transfected cells; host or cells: A375 melanoma cells (lentiviral ORF overexpression)
T1 sequence (Q9NY97 1-397): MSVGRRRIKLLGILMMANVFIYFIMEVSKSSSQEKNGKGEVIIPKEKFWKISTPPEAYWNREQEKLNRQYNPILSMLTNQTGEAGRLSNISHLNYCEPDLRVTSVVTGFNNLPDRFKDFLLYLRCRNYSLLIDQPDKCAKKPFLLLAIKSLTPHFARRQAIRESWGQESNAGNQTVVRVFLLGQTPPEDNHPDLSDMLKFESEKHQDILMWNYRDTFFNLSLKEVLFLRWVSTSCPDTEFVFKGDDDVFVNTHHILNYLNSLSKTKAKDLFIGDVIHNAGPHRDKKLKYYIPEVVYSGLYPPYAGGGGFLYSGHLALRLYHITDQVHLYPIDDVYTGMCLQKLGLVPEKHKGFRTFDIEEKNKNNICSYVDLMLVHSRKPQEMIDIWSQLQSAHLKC
Assay: Co-IP of FLAG-tagged B3GNT2 followed by mass spectrometry
Type: cell-based
Design: C-term IgG / C-term flag: unit not given here
Description: Cells were plated in 10-cm cell culture dishes and grown to 60-80% confluency. For each condition, two biological replicates were harvested for co-IP. Cells were washed with PBS and 4 mL of lysis buffer (20 mM HEPES, 1% Triton X-100, 150 mM NaCl, 1 mM EDTA, and 10% glycerol) containing protease inhibitor cocktail was added. Cells were scraped and lysate was incubated at 4° C. under rotary agitation for 1 h. Lysate was centrifuged at 14,000×g for 10 min at 4° C. Supernatant was transferred to a new tube and an aliquot was taken as the input. […] For Western blots, 10 μg/mL Chicken Anti-FLAG (Aves labs ET-DY100) and IgY control (R&D Systems AB-101-C) antibodies were biotinylated (Thermo Fisher Scientific 90407) and added to the respective conditions. Lysates with antibodies were incubated at 4° C. under rotary agitation overnight. For each mL of lysate, 50 μL of Pierce Protein A/G Magnetic Beads (Mass spectrometry; Thermo Fisher Scientific 88803) or Pierce Streptavidin Magnetic Beads (Western blot; Thermo Fisher Scientific 88817) was washed twice with lysis buffer. Lysates with antibodies were added to the beads and incubated at 4° C. under rotary agitation for 4 h. Beads were washed with lysis buffer 3 times and resuspended in lysis buffer for storage. […] This solution was subjected to solid phase extraction to concentrate the peptides and remove unwanted reagents followed by injection onto a Shimadzu HPLC with fraction collector. Eight fractions were collected and after concentration were injected on a Waters NanoAcquity HPLC equipped with a self-packed Aeris 3 μm C18 analytical column 0.075 mm by 20 cm, (Phenomenex). Peptides were eluted using standard reverse-phase gradients. The effluent from the column was analyzed using a Thermo Orbitrap Elite mass spectrometer (nanospray configuration) operated in a data dependent manner for 54 minutes. […] Scaffold Q+S (Proteome Software) was used to provide consensus reports for the identified proteins.

[1] = Co-IP with FLAG antibody, C-terminally FLAG-tagged B3GNT2, mass spectrometry count, unit not given
[2] = Co-IP with FLAG antibody, N-terminally FLAG-tagged B3GNT2, mass spectrometry count, unit not given
[3] = Co-IP with IgG control antibody, C-terminally FLAG-tagged B3GNT2, mass spectrometry count, unit not given
[4] = Co-IP with IgG control antibody, N-terminally FLAG-tagged B3GNT2, mass spectrometry count, unit not given
[5] = Co-IP followed by mass spectrometry of B3GNT2, C-term tag, FLAG pull-down
[6] = Co-IP followed by mass spectrometry of B3GNT2, C-term tag, IgG pull-down
[7] = Co-IP followed by mass spectrometry of B3GNT2, N-term tag, FLAG pull-down
[8] = Co-IP followed by mass spectrometry of B3GNT2, N-term tag, IgG pull-down

| C-term flag [1] | N-term FLAG [2] | C-term IgG [3] | N-term IgG [4] | C-term flag [5] | C-term IgG [6] | N-term FLAG [7] | N-term IgG [8] | Substance |
| --- | --- | --- | --- | --- | --- | --- | --- | --- |
| 2 | 0 | 0 | 0 | – | – | – | – | ABCD1 |
| 2 | 0 | 0 | 0 | – | – | – | – | ABCF1 |
| 5 | 5 | 0 | 0 | – | – | – | – | AIFM1 |
| 0 | 3 | 0 | 0 | – | – | – | – | ATM |
| – | – | – | – | 4 | 0 | 2 | 0 | ATP5F1B |
| 13 | 10 | 0 | 0 | – | – | – | – | CALU |
| – | – | – | – | 5 | 0 | 0 | 0 | CCT3 |
| 2 | 0 | 0 | 0 | – | – | – | – | CEP170 |
| – | – | – | – | 6 | 3 | 5 | 3 | CFL1 |
| – | – | – | – | 7 | 5 | 6 | 6 | CLTC |
| 12 | 2 | 0 | 0 | – | – | – | – | CSPG4 |
| 4 | 3 | 0 | 3 | – | – | – | – | CTSD |
| – | – | – | – | 5 | 0 | 0 | 0 | DHX9 |
| 10 | 6 | 0 | 0 | – | – | – | – | DNAJA1 |
| – | – | – | – | 3 | 0 | 3 | 0 | DNAJA2 |
| 0 | 3 | 0 | 0 | – | – | – | – | ECPAS |
| 6 | 2 | 0 | 0 | – | – | – | – | EIF4A1 |
| – | – | – | – | 6 | 2 | 2 | 2 | EIF4G1 |
| 2 | 0 | 0 | 0 | – | – | – | – | ELOC |
| – | – | – | – | 2 | 2 | 2 | 0 | EMD |
| 4 | 5 | 2 | 2 | – | – | – | – | ENO1 |

| C-term flag [1] | N-term FLAG [2] | C-term IgG [3] | N-term IgG [4] | C-term flag [5] | C-term IgG [6] | N-term FLAG [7] | N-term IgG [8] | Substance |
| --- | --- | --- | --- | --- | --- | --- | --- | --- |
| 4 | 3 | 0 | 0 | – | – | – | – | EPRS |
| 9 | 8 | 0 | 0 | – | – | – | – | ERLIN2 |
| 0 | 2 | 0 | 0 | – | – | – | – | ERP29 |
| 8 | 6 | 0 | 2 | – | – | – | – | FABP5 |
| 16 | 0 | 0 | 0 | – | – | – | – | FKBP10 |
| – | – | – | – | 22 | 15 | 29 | 20 | FLG |
| 2 | 0 | 0 | 0 | – | – | – | – | GALNT2 |
| 16 | 18 | 6 | 11 | – | – | – | – | GAPDH |
| – | – | – | – | 5 | 0 | 0 | 0 | GBF1 |
| 4 | 14 | 0 | 0 | – | – | – | – | GCN1 |
| 2 | 0 | 0 | 0 | – | – | – | – | HADHA |
| 4 | 3 | 0 | 3 | – | – | – | – | HBA1 |
| – | – | – | – | 0 | 0 | 4 | 0 | HBB |
| 2 | 0 | 0 | 0 | – | – | – | – | HDGFL2 |
| 3 | 0 | 0 | 0 | – | – | – | – | HERC2 |
| – | – | – | – | 8 | 9 | 7 | 4 | HNRNPA2B1 |
| – | – | – | – | 12 | 10 | 9 | 8 | HNRNPK |
| – | – | – | – | 12 | 0 | 0 | 2 | HNRNPU |
| 11 | 10 | 2 | 0 | – | – | – | – | HSP90AB1 |
| 56 | 9 | 0 | 0 | – | – | – | – | HSP90B1 |
| 130 | 70 | 12 | 9 | – | – | – | – | HSPA5 |

| C-term flag [1] | N-term FLAG [2] | C-term IgG [3] | N-term IgG [4] | C-term flag [5] | C-term IgG [6] | N-term FLAG [7] | N-term IgG [8] | Substance |
| --- | --- | --- | --- | --- | --- | --- | --- | --- |
| – | – | – | – | 49 | 15 | 41 | 16 | HSPA8 |
| – | – | – | – | 4 | 0 | 3 | 4 | HSPB1 |
| – | – | – | – | 0 | 0 | 3 | 0 | HUWE1 |
| 2 | 0 | 0 | 0 | – | – | – | – | IPO13 |
| – | – | – | – | 3 | 0 | 3 | 0 | ITGB3 |
| – | – | – | – | 37 | 0 | 22 | 21 | KRT4 |
| 2 | 0 | 0 | 0 | – | – | – | – | LAMB1 |
| – | – | – | – | 4 | 0 | 0 | 0 | LAMC1 |
| 2 | 0 | 0 | 0 | – | – | – | – | LARP4 |
| – | – | – | – | 11 | 6 | 11 | 9 | LCN1 |
| – | – | – | – | 4 | 3 | 7 | 4 | LGALS7B |
| 2 | 0 | 0 | 0 | – | – | – | – | LRP2 |
| 6 | 3 | 0 | 4 | – | – | – | – | LYZ |
| 2 | 0 | 0 | 0 | – | – | – | – | MAP1B |
| 3 | 0 | 0 | 0 | – | – | – | – | MON2 |
| – | – | – | – | 7 | 5 | 2 | 3 | MYH11 |
| 8 | 0 | 0 | 0 | – | – | – | – | NPM1 |
| 23 | 3 | 0 | 0 | – | – | – | – | P4HB |
| – | – | – | – | 146 | 108 | 89 | 87 | P01837.1 |
| – | – | – | – | 41 | 30 | 31 | 37 | PABPC1 |
| 4 | 4 | 3 | 0 | – | – | – | – | PCBP1 |
